# Assay results from patent US20180015176A1 (Bayer, published 2018).
# Target: T1, TPP-599 (HUMAN-TNFRSF12Aaa28-80-hIgG1-Fc) (human, biotinylated with Biotin-LC-NHS (about 2-fold molar excess))
# T1 construct: Dimeric Fc-fused extracellular domain of human TWEAKR, used biotinylated in the panning and the Fab ELISA; also called TWEAKR Fc; TWEAKR-Fc
# Experiment: ELISA, soluble Fab on 2.5 nM biotinylated TWEAKR-Fc, anti-c-myc detection
# Experimental: Affinity maturation was carried out by phage panning. Washed magnetic beads (DynaBeads) were incubated at 4° C. with 10 nM, 1 nM, 100 pM and 10 pM of biotinylated human antigen overnight and blocked with blocking buffer (PBS with 3% BSA, 0.05% Tween-20) at 4° C. for 1 h. The blocked Fab phage library was added to the blocked TWEAKR DynaBeads at 10 000-fold, 1000-fold and 100-fold excess, compared to the theoretical library complexity, and incubated at room temperature for 30 min. Thus, 12 strategies in total were followed (4 antigen concentrations×3 Fab phage titers). […] For the expression of soluble Fab, the phagemide vector was digested with MluI to remove the gene III-membrane anchor sequence required for Fab display on the phage, and ligated again. 96 variants of each of the 12 selection pools were expressed as soluble Fabs and examined in an ELISA format. […] For efficacy maturation, HEK293 cells were transfected with an NF-kappaB reporter (BioCat, Cat. No. LR-0051-PA). Transfected cells were sown in F17 media (serum-free; Invitrogen) in white polylysine-coated 384-well plates (BD), and individual variants of the NNK-diversified position antibody (human IgG1) libraries were expressed transiently in mammalian cells. The next day, NF-kappaB reporter cells were stimulated with the expressed single-NNK antibody variants for 6 h, and a luciferase assay was then carried out by standard methods.
row,binding result,Binder
1,binds,"TPP-883 single-substitution variant A51Q of CDR-L2 (soluble Fab) (Fab, V domains shown, Soluble Fab) VH: EVQLLESGGGLVQPGGSLRLSCAASGFTFSPYPMMWVRQAPGKGLEWVSYISPSGGKTHYADSVKGRFTISRDNSKNTLYLQMNSLRAEDTAVYYCARGGDGYFDYFDYWGQGTLVTVSS VL: DIQMTQSPATLSASVGDRVTITCRASQSISSYLNWYQQKPGKAPKLLIYQASSLQSGVPSRFSGSGSGTDFTLTISSLQPEDFATYYCQQSYSSPGITFGPGTKVEIK"
2,binds,"TPP-883 single-substitution variant M35I of CDR-H1 (soluble Fab) (Fab, V domains shown, Soluble Fab; also called M351) VH: EVQLLESGGGLVQPGGSLRLSCAASGFTFSPYPMIWVRQAPGKGLEWVSYISPSGGKTHYADSVKGRFTISRDNSKNTLYLQMNSLRAEDTAVYYCARGGDGYFDYFDYWGQGTLVTVSS VL: DIQMTQSPATLSASVGDRVTITCRASQSISSYLNWYQQKPGKAPKLLIYAASSLQSGVPSRFSGSGSGTDFTLTISSLQPEDFATYYCQQSYSSPGITFGPGTKVEIK"
3,binds,"TPP-883 single-substitution variant G102T of CDR-H3 (soluble Fab) (Fab, V domains shown, Soluble Fab; also called best single-substitution variant G102T) VH: EVQLLESGGGLVQPGGSLRLSCAASGFTFSPYPMMWVRQAPGKGLEWVSYISPSGGKTHYADSVKGRFTISRDNSKNTLYLQMNSLRAEDTAVYYCARGGDTYFDYFDYWGQGTLVTVSS VL: DIQMTQSPATLSASVGDRVTITCRASQSISSYLNWYQQKPGKAPKLLIYAASSLQSGVPSRFSGSGSGTDFTLTISSLQPEDFATYYCQQSYSSPGITFGPGTKVEIK"
4,binds,"TPP-883 single-substitution variant G97F of CDR-L3 (soluble Fab) (Fab, V domains shown, Soluble Fab) VH: EVQLLESGGGLVQPGGSLRLSCAASGFTFSPYPMMWVRQAPGKGLEWVSYISPSGGKTHYADSVKGRFTISRDNSKNTLYLQMNSLRAEDTAVYYCARGGDGYFDYFDYWGQGTLVTVSS VL: DIQMTQSPATLSASVGDRVTITCRASQSISSYLNWYQQKPGKAPKLLIYAASSLQSGVPSRFSGSGSGTDFTLTISSLQPEDFATYYCQQSYSSPFITFGPGTKVEIK"
